Measured values published in IntAct's records for PubMed 35512704.

B1: Mothers against decapentaplegic homolog 4 (Homo sapiens), Q13485 (parent)
chain: MDNMSITNTPTSNDACLSIVHSLMCHRQGGESETFAKRAIESLVKKLKEKKDELDSLITAITTNGAHPSKCVTIQRTLDGRLQVAGRKGFPHVIYARLWRWPDLHKNELKHVKYCQYAFDLKCDSVCVNPYHYERVVSPGIDLSGLTLQSNAPSSMMVKDEYVHDFEGQPSLSTEGHSIQTIQHPPSNRASTETYSTPALLAPSESNATSTANFPNIPVASTSQPASILGGSHSEGLLQIASGPQPGQQQNGFTGQPATYHHNSTTTWTGSRTAPYTPNLPHHQNGHLQHHPPMPPHPGHYWPVHNELAFQPPISNHPAPEYWCSIAYFEMDVQVGETFKVPSSCPIVTVDGYVDPSGGDRFCLGQLSNVHRTEAIERARLHIGKGVQLECKGEGDVWVRCLSDHAVFVQSYYLDREAGRAPGDAVHKIYPSAYIKVFDLRQCHRQMQQQAATAQAAAAAQAAAVAGNIPGPGSVGGIAPAISLSAAAGIGVDDLRRLCILRMSFVKGWGPDYPRQSIKETPCWIEIHLHRALQLLDEVLHTMPIADPQPLD
partner: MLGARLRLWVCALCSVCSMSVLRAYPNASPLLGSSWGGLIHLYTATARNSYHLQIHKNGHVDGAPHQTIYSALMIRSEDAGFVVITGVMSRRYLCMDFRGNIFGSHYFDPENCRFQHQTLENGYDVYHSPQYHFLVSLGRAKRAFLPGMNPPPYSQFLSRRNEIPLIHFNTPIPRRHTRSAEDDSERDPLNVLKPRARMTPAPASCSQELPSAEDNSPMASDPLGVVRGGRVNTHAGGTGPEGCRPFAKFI
B2: Mothers against decapentaplegic homolog 4 (Homo sapiens), Q13485 (parent)
chain: B1 chain
partner: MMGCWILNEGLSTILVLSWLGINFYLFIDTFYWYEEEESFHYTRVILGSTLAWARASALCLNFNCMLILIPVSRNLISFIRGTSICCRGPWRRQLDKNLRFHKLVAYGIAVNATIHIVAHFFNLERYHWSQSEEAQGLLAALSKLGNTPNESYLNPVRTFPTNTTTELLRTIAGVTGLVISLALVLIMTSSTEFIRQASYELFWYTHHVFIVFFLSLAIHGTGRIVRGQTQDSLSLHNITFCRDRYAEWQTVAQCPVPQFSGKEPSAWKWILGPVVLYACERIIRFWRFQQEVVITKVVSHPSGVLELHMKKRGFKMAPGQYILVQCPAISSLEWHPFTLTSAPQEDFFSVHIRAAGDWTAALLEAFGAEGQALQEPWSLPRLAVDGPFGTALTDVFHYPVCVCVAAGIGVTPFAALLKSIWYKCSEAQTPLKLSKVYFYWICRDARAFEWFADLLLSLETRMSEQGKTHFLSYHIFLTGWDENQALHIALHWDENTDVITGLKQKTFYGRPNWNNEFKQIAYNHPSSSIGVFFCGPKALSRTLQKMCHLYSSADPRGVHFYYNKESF
B3: Mothers against decapentaplegic homolog 4 (Homo sapiens), Q13485 (parent)
chain: B1 chain
partner: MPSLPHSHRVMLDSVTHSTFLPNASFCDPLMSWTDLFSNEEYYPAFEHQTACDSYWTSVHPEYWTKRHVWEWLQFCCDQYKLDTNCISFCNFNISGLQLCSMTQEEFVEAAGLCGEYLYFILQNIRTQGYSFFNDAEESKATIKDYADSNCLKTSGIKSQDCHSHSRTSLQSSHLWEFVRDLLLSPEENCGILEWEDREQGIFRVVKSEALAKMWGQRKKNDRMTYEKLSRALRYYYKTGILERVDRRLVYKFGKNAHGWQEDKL
B4: Mothers against decapentaplegic homolog 4 (Homo sapiens), Q13485 (parent)
chain: B1 chain
partner: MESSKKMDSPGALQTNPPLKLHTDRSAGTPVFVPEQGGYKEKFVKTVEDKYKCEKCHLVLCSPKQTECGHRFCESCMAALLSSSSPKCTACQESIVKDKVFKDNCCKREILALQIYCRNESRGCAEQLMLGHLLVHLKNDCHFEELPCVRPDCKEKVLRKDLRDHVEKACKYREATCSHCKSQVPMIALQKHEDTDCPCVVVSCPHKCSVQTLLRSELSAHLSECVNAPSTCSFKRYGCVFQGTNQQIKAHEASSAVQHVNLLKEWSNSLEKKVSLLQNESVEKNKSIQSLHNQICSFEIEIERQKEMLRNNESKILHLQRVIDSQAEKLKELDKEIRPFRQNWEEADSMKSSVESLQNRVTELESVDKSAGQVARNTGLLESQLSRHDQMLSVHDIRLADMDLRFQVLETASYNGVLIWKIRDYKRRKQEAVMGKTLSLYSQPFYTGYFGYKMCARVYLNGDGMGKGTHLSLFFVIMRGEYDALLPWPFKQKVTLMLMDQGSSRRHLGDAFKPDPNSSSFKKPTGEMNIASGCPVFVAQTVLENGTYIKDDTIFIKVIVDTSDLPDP

Variants of: B1
Settings: with fgf23_human FGF23, Q9GZV9

Row | effect of a mutation on the interaction | Variant
1 | with no effect | G386D

Variants of: B1
Settings: with fgf23_human FGF23, Q9GZV9
Remark: another data set of the same source

Row | effect of a mutation on the interaction | Variant
2 | increasing interaction strength | G386D

Variants of: B2
Settings: with nox3_human NOX3, Q9HBY0

Row | effect of a mutation on the interaction | Variant
3 | with no effect | G386D

Variants of: B2
Settings: with nox3_human NOX3, Q9HBY0
Remark: another data set of the same source

Row | effect of a mutation on the interaction | Variant
4 | with no effect | R361H

Variants of: B3
Settings: with elf5_human ELF5, Q9UKW6

Row | effect of a mutation on the interaction | Variant
5 | with no effect | G386D

Variants of: B3
Settings: with elf5_human ELF5, Q9UKW6
Remark: another data set of the same source

Row | effect of a mutation on the interaction | Variant
6 | with no effect | R361C

Variants of: B3
Settings: with elf5_human ELF5, Q9UKW6
Remark: another data set of the same source

Row | effect of a mutation on the interaction | Variant
7 | with no effect | R361H

Variants of: B4
Settings: with traf3_human TRAF3, Q13114

Row | effect of a mutation on the interaction | Variant
8 | with no effect | D351H
